# Patent US20040077572, “Transposon system and methods of use” (Regents of the University of Minnesota, published 2004)
# T1: N123 (DNA-binding domain of Sleeping Beauty transposase) (synthetic (reconstructed salmonid))
# T1 chain: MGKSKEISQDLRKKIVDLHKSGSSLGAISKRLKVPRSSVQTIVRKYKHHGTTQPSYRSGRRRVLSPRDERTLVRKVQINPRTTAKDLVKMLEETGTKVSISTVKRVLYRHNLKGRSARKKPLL
# Legend:
# Settings in all cases: tags: C-terminal His6
# [1] = molecular target: T1, N123 (DNA-binding domain of Sleeping …); assay: EMSA; binding abolished
# Description: (§1) DNA fragments with one to three DRs were obtained by digestion of the appropriate transposon with HindIII and SacI. To determine the core sequence for SB binding, DNA fragments with mutations in the outer or inner DR were made by PCR followed by enzyme digestion. DNA fragments were end-labeled with [α³²P]-dCTP. Nucleoprotein complexes were formed in a buffer as described by Ivics et al., Cell, 1997;91:501-510. Reactions contained 100 picogram (pg) DNA probes, 1 microgram (μg) poly[dI:dC], and 1 microliter (μl) N123 in a total volume of 20 μl. After a 60 minutes incubation at 30° C., […] of loading dye containing 50% glycerol and bromophenol blue were added and the samples were loaded onto 4%-6% polyacrylamide gels, which were run for 2-3 hours at 120 volts. 4% gels were used for EMSA assays with triple-DR probes while 6% gels were used with double-DR probes. Competitor concentrations were as described in Ivics et al., Cell, 1997;91:501-510. Dried gels were exposed to the phosphor for 6-9 hours and imaged on a Storm 840 Imager (Molecular Dynamics).
# [2] = molecular target: T1, N123 (DNA-binding domain of Sleeping …); assay: EMSA; binding not affected
# Description: as §1
# [3] = molecular target: T1, N123 (DNA-binding domain of Sleeping …); assay: EMSA; still binds
# Description: as §1
# [4] = molecular target: T1, N123 (DNA-binding domain of Sleeping …); assay: competition; binds more tightly than Lo
# Description: as §1
# (§2) The initial step of SB transposition involves the specific binding of transposase to both ITRs of SB transposon. Two DRs in each ITR are required because deletion of one or the both severely reduces transposition (Izsvák et al., J. Mol. Biol., 2000;302:93-102). […]
# [5] = molecular target: T1, N123 (DNA-binding domain of Sleeping …); assay: competition; weaker competitor than Li
# Description: as §1, §2
binder,measurement,setting,value
Lo(S27-29) (dsDNA) DNA 1: TACAGTTGAAGTCGGAAGTTTACATACATGGAAG DNA 2: CTTCCATGTATGTAAACTTCCGACTTCAACTGTA,binding result,[1],no binding
Lo(S28-30) (dsDNA) DNA 1: TACAGTTGAAGTCGGAAGTTTACATACACGGGAG DNA 2: CTCCCGTGTATGTAAACTTCCGACTTCAACTGTA,binding result,[2],binds
Lo(S4-6) (dsDNA) DNA 1: TACAGCCCAAGTCGGAAGTTTACATACACTTAAG DNA 2: CTTAAGTGTATGTAAACTTCCGACTTGGGCTGTA,binding result,[2],binds
"Lo(S1,3) (dsDNA) DNA 1: TAAAATTGAAGTCGGAAGTTTACATACACTTAAG DNA 2: CTTAAGTGTATGTAAACTTCCGACTTCAATTTTA",binding result,[2],binds
Lo(delta8-11) (dsDNA) DNA 1: TACAGTTGAGGAAGTTTACATACACTTAAG DNA 2: CTTAAGTGTATGTAAACTTCCTCAACTGTA,binding result,[1],no binding
"Li/Lo(H) (dsDNA, [none]) DNA 1: TCCAGTGGGTCAGAAGTTTACATACACTTAAG DNA 2: CTTAAGTGTATGTAAACTTCTGACCCACTGGA",binding result,[3],binds
Li (dsDNA) DNA 1: TCCAGTGGGTCAGAAGTTTACATACACTAAGT DNA 2: ACTTAGTGTATGTAAACTTCTGACCCACTGGA,binding result,[4],binds
Lo(S7-9) (dsDNA) DNA 1: TACAGTTGCCCTCGGAAGTTTACATACACTTAAG DNA 2: CTTAAGTGTATGTAAACTTCCGAGGGCAACTGTA,binding result,[2],binds
Lo(S10-12) (dsDNA) DNA 1: TACAGTTGAAGAACGAAGTTTACATACACTTAAG DNA 2: CTTAAGTGTATGTAAACTTCGTTCTTCAACTGTA,binding result,[1],no binding
Lo (dsDNA) DNA 1: TACAGTTGAAGTCGGAAGTTTACATACACTTAAG DNA 2: CTTAAGTGTATGTAAACTTCCGACTTCAACTGTA,binding result,[5],binds
Lo(S3) (dsDNA) DNA 1: TACAATTGAAGTCGGAAGTTTACATACACTTAAG DNA 2: CTTAAGTGTATGTAAACTTCCGACTTCAATTGTA,binding result,[2],binds
